Here are results for two molecules from paper PMC3215855 (Developmental cell, 2011).

In general, Kd refers to the constant that tells how readily two partners part at equilibrium. What is called stoichiometry N is the number of molecules, sites or subunits per partner or assembly.

For this assay, the target named is T1, LRP6(3-4) (human, UniProt O75581 630-1246, N-linked carbohydrate at five predicted sites).
T1 sequence: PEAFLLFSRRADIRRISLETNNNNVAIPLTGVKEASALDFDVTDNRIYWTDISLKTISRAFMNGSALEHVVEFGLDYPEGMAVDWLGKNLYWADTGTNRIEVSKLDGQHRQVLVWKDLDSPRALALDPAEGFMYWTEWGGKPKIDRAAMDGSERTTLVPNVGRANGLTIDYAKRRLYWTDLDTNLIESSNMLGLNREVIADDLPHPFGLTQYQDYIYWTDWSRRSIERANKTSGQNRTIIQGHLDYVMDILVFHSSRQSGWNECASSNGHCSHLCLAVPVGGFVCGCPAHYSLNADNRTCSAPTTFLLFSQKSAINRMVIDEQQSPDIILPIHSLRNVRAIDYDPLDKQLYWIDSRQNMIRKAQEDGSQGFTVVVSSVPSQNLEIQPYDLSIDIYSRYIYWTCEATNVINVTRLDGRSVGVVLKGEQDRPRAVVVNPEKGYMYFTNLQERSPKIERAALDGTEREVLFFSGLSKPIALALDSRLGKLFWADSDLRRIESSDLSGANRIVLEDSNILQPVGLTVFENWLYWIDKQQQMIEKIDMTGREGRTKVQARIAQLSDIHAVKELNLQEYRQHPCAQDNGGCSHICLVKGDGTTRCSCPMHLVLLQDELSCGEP
The assay can be described thus: ITC.

B1: full-length Dkk1 (ligand, human, UniProt O94907 32-266, looked up)
chain: TLNSVLNSNAIKNLPPPLGGAAGHPGSAVSAAPGILYPGGNKYQTIDNYQPYPCAEDEECGTDEYCASPTRGGDAGVQICLACRKRRKRCMRHAMCCPGNYCKNGICVSSDQNHFRGEIEETITESFGNDHSTLDGYSRRTTLSSKMYHTKGQEGSVCLRSSDCASGLCCARHFWSKICKPVLKEGQVCTKHRRKGSHGLEIFQRCYCGEGLSCRIQKDHHQASNSSRLHTCQRH
modifications: one N-linked carbohydrate site
As for B1, the Kd is 67 nM.

B2: Dkk1_C (domain or fragment, human, UniProt O94907 178-266, looked up)
chain: MYHTKGQEGSVCLRSSDCASGLCCARHFWSKICKPVLKEGQVCTKHRRKGSHGLEIFQRCYCGEGLSCRIQKDHHQASNSSRLHTCQRH
Consider B2, for which the “stoichiometry N” value was 1.
